# Earlier results, collected in article PMC7294537.
# pKd: −log10 of the molar value.
# How the values were obtained:
# [1] = target: CUE domain CUE (Saccharomyces cerevisiae) (UniProt P36075)
# lysozyme (Gallus gallus) = lysozyme (Gallus gallus) (UniProt P00698)
# Chain of ubiquitin (P0CG63 1-76): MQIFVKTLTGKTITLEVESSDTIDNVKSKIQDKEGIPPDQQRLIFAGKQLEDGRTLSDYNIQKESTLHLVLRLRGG
# Chain of CUE domain CUE (Saccharomyces cerevisiae) (P36075 8-51): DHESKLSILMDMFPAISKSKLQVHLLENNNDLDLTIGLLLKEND
# Chain of lysozyme (P00698 19-147): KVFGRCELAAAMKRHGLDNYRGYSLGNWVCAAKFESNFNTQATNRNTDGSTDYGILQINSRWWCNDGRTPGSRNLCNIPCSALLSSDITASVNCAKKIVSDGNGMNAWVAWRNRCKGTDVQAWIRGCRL
pKd [1],pKd (lysozyme (Gallus gallus)),Substance
3.81,–,ubiquitin (from UniProt P0CG63)
–,2.57,lysozyme (from UniProt P00698)
